Series [1] has as its target nsp12 (RdRp catalytic subunit, Sf9);nsp7;nsp8 (SARS-CoV-2;SARS-CoV-2;SARS-CoV-2, UniProt P0DTD1;P0DTD1;P0DTD1 4393-5324;3860-3942;3943-4140, ||). In words: EMSA. The following applies: protein: recombinant;recombinant;recombinant; tags: 6xHis (Results: C-terminal; Methods: His tag after 5' ATG);6xHis (Results: C-terminal; legend: His6-nsp7);6xHis (Results: C-terminal; legend: His6-nsp8); copies: 1;1;2; label: 5'-biotin on strand 1 (S1); 5' overhang 10 nt (U10) on strand 2. For orientation: A gel shift assay detects complexes by their altered migration in electrophoresis.

Series [2] has as its target nsp12 (RdRp catalytic subunit, Sf9) (SARS-CoV-2, UniProt P0DTD1 4393-5324). Put plainly: EMSA; nsp12 alone. The following applies: protein: recombinant; tags: 6xHis (Results: C-terminal; Methods: His tag after 5' ATG); label: 5'-biotin on strand 1 (S1); 5' overhang 10 nt (U10) on strand 2.

These results are taken from paper PMC9021610.

B1: S1*/S2 RNA primer/template (dsRNA)
RNA 1: GCUAUGUGAGAUUAAGAAUU
RNA 2: UUUUUUUUUUAAUUCUUAAUCUCACAUAGC
Consider B1, for which the binding result in series [1] and in series [2] was “binds” each time.
